From patent US20190388532A1 (ENTEROME S A, published 2019)

target: T1, HLA-A*0201 molecule expressed by T2 cells (human); assay: T2 cell HLA-A*0201 surface expression assay, flow cytometry; relative affinity = peptide concentration inducing 20% HLA-A*0201 expression / that of reference peptide HIV pol 589-597
T1 construct: MHC class I molecule on T2 cells
Protocol: T2 cells (2.10⁵ cells per well) were incubated with decreasing conceontrations of peptides from 100 μM to 0.1 μM in a AIMV medium supplemented with 100 ng/μl of human β2 m at 37° C. for 16 hours. Cells were then washed two times and marked with the anti-HLA-A2 antibody coupled to PE (clone BB7.2, BD Pharmagen).
The experimental protocol, materials and methods correspond to those outlined in Example 3, with the only difference that the above mentioned antigenic peptides were used.

In vitro binding affinity	Binder
2.22	ILPFGFILA [peptide 1I9A]
0.49	FLPFGFILV (also called candidate peptide; IL13RA2-B pAg) [IL13RA2-B (antigenic peptide FLPFGFILV, SEQ ID No 31)]
3.06	ALPFGFILV (also called IL13RA2-ST) [peptide 1A9V (Eguchi et al. 2006)]
2.62	FLPFGFILM [peptide 1F9M]
